Source: the DeepSol protein solubility set

Test: soluble on expression in E. coli; label from the status in PepcDB or PDB records

Sequence | soluble on expression in E. coli
MTDVEKPVDNSGTLIDDILSPLKGVNEDLNVLVLGGDKVNNNTDTMMLVNFKPSTSKVSILSIPRDTKVKINGKKAKINSAYPTGGGELAVQTVSELFGIDVKYYVFVDTSSFRKIIDILGGVDYYVPVDMDYDDPLQGLSIHIKKGQHHFDGAMAEKFMRFRQYNNGRVNEYYDGSDLKRIDAQQNFIRELVRQKLNIFYLTKVDDIASTIFSNIDTNLNMSEVLKLTGSVSKVQADSINMLKVPGKSVLDGAWYYVIDSQETDKIINEYFRTRYKLEHHHHHH | soluble
MSLGQSAQLRSWLQAMPKGGDLHNHLSGSVYAEDYLQWASEDGACVQLDDLSLRAPPCVAGQVPARGLSTRDVALYGRVVDALSMRNHLASPSQPTGHGQFFSTFGKFDAVVRARVADTVAAVLEQAARDRVPYVEIIANPPQMDDAAQRMQALPWHGTDDAANLRELQDALPPLVQAAQRNLADLDAQVRHVLQCDQAQPRAACQVQYRYVPYVLRVLPAPQVFGQMALAHALVAAGGSRAVAVNIVAPEDNPVAVADYARHMAMFRFFAQRYPGVPLSLHAGELTLGLVPPAQLRSHIRQAVDAGARRIGHGVDLPYEDDAQELLQRMRRDQVAVEINLTSNDVILGVTGAAHPLAMYLRAGVPVVLSTDDAGVSRADMTHEYQRAVQEQGIEYPTLKQLARNGLTYSFLPGASLWSANGKAAQACATALQRETDDAGCQAFRQSSEKARLQWQLETDLAQYERMLMEQRKVQTEGHHHHHH | not soluble
MAHHHHHHMRLRSPCGVKGIAADALVDLVQSCYPSATVLFTSVANNVAAADNSELRISSSLDAWQAKLHTRRAWRQGLSVDTPGFQRILARRHIVPARSAEAAASSWWALLYAADATNRPRVALPRQPSQSLPPSHIAHPILCCPDAIVYIGGVEVRDVTQVVAPTLVDAVTRVEAPHSTVGAASATHRAERQAPSYCRRRVDWPTVWADKRCAMRGADLLELSLAVPSDLGHRHADVRERVLVSIANPDVTLADLQRQPHAGRRGPLRTSFGFSLPCVQAALPAAVIRAVRVLRRWQRDVAHCIPSTSAFWVSSIGHLLETSVGDAASPLTQWAEACTRQEQELGMSETQMRHLFAIVQPDSDQTSTRVPLPEDATKLLTFLLTSTVLQLACTSPLEAWNGTNYFLPAERFDGTTDAEVLLRTMRSVAGTHLTFPIFSSLYGSPCGAEQGPLSQSSP | not soluble
MEAIDQLVGQWQKDGLSPSQVAEKFSKCVLYVTCEPCIMCASALSFLGIKEVYYGCPNDKFGGCGSILSLHLGSEEAQRGKGYKCRGGIMAEEAVSLFKCFYEQGNPNAPKPHRPVVQRERT | soluble
MKAKAILLASVLLVGCQTSQNTGNVQQHAQSLSAAGQGEAGKFTSQARWMDDGTSIAPDQDLWAFIGDELKMGIPENSRIREQKQKYLRNKSYLHDVTLRAEPYMYWIAGQVKKRNMPMELVLLPIVESAFDPHATSGANAAGIWQIIPSTGRNYGLKQTRNYDARRDVVASTTAALDMMQRLNKMFDGDWLLTVAAYNSGEGRVMRAIKANKARGKPTDFWSLSLPRETKLYVPKMLALSEILKNSKRYGVRLPTTDESRALARVRLNSPVEMAQVADMAGMSISKLKTFNAGVKGSTLGVSGPQYVMVPKKHAEQLRESLASGEIDAVQSQLIADNTPLNSRSYKVRSGDTLSGIASRLGVSTKDLQQWNNLRGSRLKIGQSLTVGAGSSAQRLANNSDSITYRVRKGDSLSSIARRHGVNIKDVMRWNHDTDNLQPGDQLTLFVKDNSTPDSLEHHHHHH | soluble
MGSDKIHHHHHHMNAMTQVSPLLEMRGICKTFPGVKALDDVSFDIYPGEVHMLLGENGAGKSSLMKVLCGVYVADAGEFHHQGQRVEVSGPADTMRLGIAVIFQEFSLVPYLDIAQNIFLGREPRGRVPGSVDHAKMHAEARRLLDTLGMDISTHTPVHRLGVAQQQMIEIAKALSQNARILVLDEPTAALSERETEKLFGVIARLKADGVSMIYISHRMAEVFALGDRITVMRDGRKVGSYMPGDATPDELVARMVGRKVDMGYTRTRGGPVGEVALDMQGVSADNGIDDITLQVRAGEIVGLAGLVGSGRSEVARAVFGADPVRAGEIRIFGKSMRGGPDKARALGAALIPESRKTEGLALIRSVRDNLLLAGLRRAFPAHWYRSGKAAQLSTREIGRLRIATPSGDQLAQFLSGGNQQKIVIGKWLVAESRLFIFDEPTRGIDVGAKAEIFALIDGLVKQGAAVLLISSELPEIINVCDRTYVMRGGRVAGELAHDAMTEESILQLGMNDA | not soluble
MATKHDQILKHIEDLPIGDRISVRSIAKSLSVSEGTAYRAIKDAENIGLVSTIQRVGTIRIERKLKKHIEKLTFGEVVRIIEGDVLGGSSGLDKVLNKFVIGAMTETAMTRYITPGSLMIVGNRQGVQKLALENGAAVLITGGFETSEEIAQLADRLGMPVLRTTYDTFTVATMINRALSDQLIKKDILLVSDIYTALEKTNYLLTTQTIADYQALSESTHHSRFPVVNKKLRLVGIVTAKDVIGKSEHLTVDKVMTKDPNVVKKMMSVASVSHQMIWDGLEVMPVVEDDLALVGIVSRQDVMKAMQLVQRQPQIADTISDQISGEVMPVEENGKETTRFRFSVAPQMVNSVGTISFGVLSEIISNVTQRTMLMNQKRNVLIEQVNLHYLRLIQLESELDIRPRILEIGRRSAKLDIEVYLENVIVAKAIVVCQVMERT | not soluble
MFVFDATPLIYLAKAERLSLLSRLDASRLIPQRVYEEVVTVGLDAGYPDARRIEQSVEEGTFDVVSVPETTLFDRLSGNPNVSDADVAVLALAADHGATAVMDDAYGRDIAAVEAIETRGTAYLVLSLVRDGELEADDARETLEAMLDAGWHCSPSLYSKLLSKLEELAVGGADNRLEHHHHHH | not soluble
MGSDKIHHHHHHMNNEFYNQGLEKAKQRDYAGAIEEFSRALKLTPYFAEAYLQRGLAYYDSGAILLAVSDYTEVIRINPESVEAYYCRSLARLALKNLPGALEDVEQAIRLNINYAAAHHLRGTVRRKQGYIQDAIASFKQAAELYLQQKDQENCRLCLEKIKQLQPPKQSTIQPTKSPIAPITSVNEYFTQLLDKAEQGDTREAIADLNWILQADPQDAQAYCCRGVVRCKMGNYREAIADFNQALQLNFQDAVVYRNRGKARSLLGDHRGAIADFNQAIQIQPEDTLGYVARGNTYRAMGNYLGAIQDYGKALQINPHDAQAYYNRGIAYTFLEEMQNAVEDYQRAASIFCEQQDWENYQLTQDSLKQIQTSIPEYKQQKSNVLRQKLLRLVGGYWEIAQRLIQQQKDYQPGMSEEWYMQKVIDDLERDRGR | not soluble
MKVTQLSSETLDRAHERFEETLAQMTVAEANTMPAPLIKSVTWLMWHTARELDLQISALNHSDPLWLSQHWTEKFALDLPDETEDWHHTPEEAAKVVVAEKQLLSDYLAASVALTKSYLDQIKEEQLSDVIDKNWTPPVTRQVRLVSAIDDAVMHSGQAVYTRRLVIGK | soluble
GSEFAIDPNEPTYCLCNQVSYGEMIGCDNEQCPIEWFHFSCVSLTYKPKGKWYCPKCRGDNE | soluble
MADSTPILFDRRLLAARLHRAAALGPAPFLLDRVAEEMDERLHAVLRDFTEVADLWTPGGLKLQRFPKLAHLAVDPSGSEALPFAPGSLDLVVSALALQFANDLPGVLAQLRRALKPDGLLLAALTGGETLTELRQAFASAEAEIEGGVSPRVAPAADLRDLGALLQRAGFALPVTDVDRVVVRYDHAFALMQDLRRMGATNVLIERRRTPLRRATLTRMAQIYADRFSDPDGRIRATFEIVWLSGWSPHESQQQPLKPGSAKVSLEEAVRGKRLEHHHHHH | not soluble
MSVRIEDHAMLGNCHSAALVDHRGTIGWLCLPRFDSDAVFAALLGDQQHGQWALSPAADFRTERAYQDDSLVLCTRMITDSGTVELIDFMVASENGEVHQHLVRIVRCVQGSVPMHMRLTFRFNYGRTLEHHHHHH | soluble
MSLYEWLNALPKAELHLHLEGTLEPELLFALAERNRIALPWNDVETLRKAYAFNNLQEFLDLYYAGADVLRTEQDFYDLTWAYLQKCKAQNVVHVEPFFDPQTHTDRGIPFEVVLAGIRAALRDGEKLLGIRHGLILSFLRHLSEEQAQKTLDQALPFRDAFIAVGLDSSEVGHPPSKFQRVFDRARSEGFLTVAHAGEEGPPEYIWEALDLLKVERIDHGVRAFEDERLMRRLIDEQIPLTVCPLSNTKLCVFDDMSQHTILDMLERGVKVTVNSDDPAYFGGYVTENFHALQQSLGMTEEQARRLAQNSLDARLVKEGHHHHHH | soluble
